# Test results published in publication PMC3934934, “The Self-Interaction of a Nodavirus Replicase Is Enhanced by Mitochondrial Membrane Lipids” (PLoS ONE, 2014).
# T1: MBP-protA fragment aa 481–659 (Wuhan nodavirus (WhNV), UniProt Q3KSM3 481-659)
# T1 construct: source: E. coli strain TB1, purified (amylose resin); not shown: MBP, N-terminal, kept
# T1 sequence: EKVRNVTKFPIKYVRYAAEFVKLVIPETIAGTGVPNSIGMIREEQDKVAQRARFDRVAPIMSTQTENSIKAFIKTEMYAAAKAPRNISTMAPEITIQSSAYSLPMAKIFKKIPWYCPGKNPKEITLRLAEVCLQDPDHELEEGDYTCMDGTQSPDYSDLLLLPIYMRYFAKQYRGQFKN
# T2: MBP-protA fragment aa 255–480 (Wuhan nodavirus (WhNV), UniProt Q3KSM3 255-480)
# T2 construct: source: E. coli strain TB1, purified (amylose resin); not shown: MBP, N-terminal, kept
# T2 sequence: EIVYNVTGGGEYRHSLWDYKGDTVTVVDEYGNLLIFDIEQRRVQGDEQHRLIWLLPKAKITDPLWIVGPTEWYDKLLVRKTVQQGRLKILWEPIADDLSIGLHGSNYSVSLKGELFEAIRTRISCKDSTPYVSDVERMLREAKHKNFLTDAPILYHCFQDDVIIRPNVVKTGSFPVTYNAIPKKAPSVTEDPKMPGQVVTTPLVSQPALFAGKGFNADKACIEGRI
# T3: MBP-protA fragment aa 1–254 (Wuhan nodavirus (WhNV), UniProt Q3KSM3 1-254)
# T3 construct: also called 1–254 MBP/protA; source: E. coli strain TB1, purified (amylose resin); not shown: MBP, N-terminal, kept
# T3 sequence: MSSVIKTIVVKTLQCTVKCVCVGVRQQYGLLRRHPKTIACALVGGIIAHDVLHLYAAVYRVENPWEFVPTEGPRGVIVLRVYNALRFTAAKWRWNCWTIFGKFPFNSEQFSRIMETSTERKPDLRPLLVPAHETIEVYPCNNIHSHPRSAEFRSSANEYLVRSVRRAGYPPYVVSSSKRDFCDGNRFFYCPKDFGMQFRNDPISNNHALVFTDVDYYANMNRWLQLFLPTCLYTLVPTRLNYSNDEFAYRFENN
# Assays:
# [1] = target: T1, MBP-protA fragment aa 481–659; test: pull-down; MBP fusion protein (1 µM) held on amylose resin, His-tagged protein (1 µM) in vitro translated in rabbit reticulocyte lysate; room temperature, 4 hrs; no lipids; Western blot with anti-His; signals given as % of FL to FL protein A self-interaction; conditions: one partner purified
# [2] = target: T2, MBP-protA fragment aa 255–480; test: as above; conditions: one partner purified
# [3] = target: the molecule itself; test: cross-linking; MBP-tagged protein in cross-linking buffer (10 mM HEPES pH 7.4, 50 mM MgCl2, 1 mM DTT, 1% glycerol, 0.03% glutaraldehyde), then 10% SDS-PAGE
# [4] = target: T3, MBP-protA fragment aa 1–254; test: pull-down; MBP fusion protein (1 µM) held on amylose resin, His-tagged protein (1 µM) in vitro translated in rabbit reticulocyte lysate; room temperature, 4 hrs; no lipids; Western blot with anti-His; signals given as % of FL to FL protein A self-interaction; conditions: one partner purified
binder,measurement,setting,value
"His-protA fragment aa 481–659, in vitro translated (domain or fragment, source: in vitro translated in nuclease-treated rabbit reticulocyte lysates) EKVRNVTKFPIKYVRYAAEFVKLVIPETIAGTGVPNSIGMIREEQDKVAQRARFDRVAPIMSTQTENSIKAFIKTEMYAAAKAPRNISTMAPEITIQSSAYSLPMAKIFKKIPWYCPGKNPKEITLRLAEVCLQDPDHELEEGDYTCMDGTQSPDYSDLLLLPIYMRYFAKQYRGQFKN","homotypic interaction, % of FL to FL protein A self-interaction",[1],2%
"His-protA fragment aa 255–480, in vitro translated (domain or fragment, source: in vitro translated in nuclease-treated rabbit reticulocyte lysates) EIVYNVTGGGEYRHSLWDYKGDTVTVVDEYGNLLIFDIEQRRVQGDEQHRLIWLLPKAKITDPLWIVGPTEWYDKLLVRKTVQQGRLKILWEPIADDLSIGLHGSNYSVSLKGELFEAIRTRISCKDSTPYVSDVERMLREAKHKNFLTDAPILYHCFQDDVIIRPNVVKTGSFPVTYNAIPKKAPSVTEDPKMPGQVVTTPLVSQPALFAGKGFNADKACIEGRI","homotypic interaction, % of FL to FL protein A self-interaction",[2],55%
"MBP-tagged full-length (FL) WhNV protein A (natural protein, also called MBP-protA; 1–1014 MBP/protA; source: E. coli strain TB1, purified (amylose resin); not shown: MBP, N-terminal, kept) MSSVIKTIVVKTLQCTVKCVCVGVRQQYGLLRRHPKTIACALVGGIIAHDVLHLYAAVYRVENPWEFVPTEGPRGVIVLRVYNALRFTAAKWRWNCWTIFGKFPFNSEQFSRIMETSTERKPDLRPLLVPAHETIEVYPCNNIHSHPRSAEFRSSANEYLVRSVRRAGYPPYVVSSSKRDFCDGNRFFYCPKDFGMQFRNDPISNNHALVFTDVDYYANMNRWLQLFLPTCLYTLVPTRLNYSNDEFAYRFENNEIVYNVTGGGEYRHSLWDYKGDTVTVVDEYGNLLIFDIEQRRVQGDEQHRLIWLLPKAKITDPLWIVGPTEWYDKLLVRKTVQQGRLKILWEPIADDLSIGLHGSNYSVSLKGELFEAIRTRISCKDSTPYVSDVERMLREAKHKNFLTDAPILYHCFQDDVIIRPNVVKTGSFPVTYNAIPKKAPSVTEDPKMPGQVVTTPLVSQPALFAGKGFNADKACIEGRIEKVRNVTKFPIKYVRYAAEFVKLVIPETIAGTGVPNSIGMIREEQDKVAQRARFDRVAPIMSTQTENSIKAFIKTEMYAAAKAPRNISTMAPEITIQSSAYSLPMAKIFKKIPWYCPGKNPKEITLRLAEVCLQDPDHELEEGDYTCMDGTQSPDYSDLLLLPIYMRYFAKQYRGQFKNLYNQIYKQRATTSSGVPYNPEMTIRSGSSITTHAGTLNNAFNIYAALRDMGYDETTAWDKVGAVFGDDSLNANHQGEFHSYIEHVTKVLGMRYKSNLRERGQPVLFLGRYFVDPITSYDSFADPMRTIGKLHATANKNVSVEQGAANKAHGYITTDSKTPIIGAWARRVLEITKKKFKNGTGEEQYRCSNAWPQKDEAAIRAAMAAVLEVDEAQLIAQNEAVLKVNSLDQFPVVFDTYYDHKQLAEVDGQLVGTDLHIKEEDERQPETSIDSVPSTGPPPSNGDPNAGGKPTDGPSKGKRKVKGRRPRTAGDPATLRLTDAGSSRRVKPPRKLRPEAKRGGRPIETLVFKNSSLS",stoichiometry N,[3],2
"His-protA fragment aa 1–254, in vitro translated (domain or fragment, also called 1–254 His/protA; wt protein A fragment aa 1–254; source: in vitro translated in nuclease-treated rabbit reticulocyte lysates) MSSVIKTIVVKTLQCTVKCVCVGVRQQYGLLRRHPKTIACALVGGIIAHDVLHLYAAVYRVENPWEFVPTEGPRGVIVLRVYNALRFTAAKWRWNCWTIFGKFPFNSEQFSRIMETSTERKPDLRPLLVPAHETIEVYPCNNIHSHPRSAEFRSSANEYLVRSVRRAGYPPYVVSSSKRDFCDGNRFFYCPKDFGMQFRNDPISNNHALVFTDVDYYANMNRWLQLFLPTCLYTLVPTRLNYSNDEFAYRFENN","homotypic interaction, % of FL to FL protein A self-interaction",[4],73%
